Results on 1 molecule are retold here after patent US12709742B2, “RNA expression modulating or editing method via regulation of Cas13 protein” (Korea Advanced Institute of Science and Technology, priority 2021, dated 2026).

This test deals with Firefly luciferase target RNA. Kind of test: Dual luciferase reporter assay of paCas13 fragments under blue light stimulation. The class given is cell-based. The conditions noted are these: 488 nm blue light for 24 hours. Here is the method: Specifically, to evaluate the changes in protein levels, HEK293T cells (ATCC) were co-transfected with 10 ng of a double luciferase reporter plasmid (Promega), 75 ng of each inducible Cas13 fragment expressing the plasmid, and 100 ng of a crRNA expression plasmid. 16 hours prior to transfection, the cells were placed in a 96-well plate (Corning) and allowed to grow until reaching 80% confluency. On the next day, 10 μL of Opti-MEM and 10 μL of Opti-MEM containing 0.6 μL of lipofectamine LTX and 0.26 μL of PLUS reagent and all transfected DNA plasmids were mixed, and a total of 20 μL of Opti-MEM I reducing serum medium (ThermoFisher) was added to each well. All solutions were incubated for 5 minutes before slowly added to the cells. […] The experiment was performed in triplicate. The decrease in the target RNA, the Firefly transcript, was confirmed by comparing the expression value at the protein level of the control group Renilla.
Luciferase reporter assay was performed to confirm whether the Cas13b protein was activated by light stimulation when the construct designed in Example 3 was used.
To test the light-inducible RNA targeting of paCas13, the target RNA knockdown activity of paCas13 fragments was evaluated using a dual luciferase system under the blue light stimulation for 24 hours with an LED plate emitting 488 nm of blue light (FIG. 8). […]

B1: nMagH: paCas13 fragments fused with pMag and nMagH (nMag with M135I and M165I mutations) (protein)
chain: HTLYAPGGYDIMGYLDQIGNRPNPQVELGPVDTSCALILCDLKQKDTPIVYASEAFLYMTGYSNAEVLGRNCRFLQSPDGMVKPKSTRKYVDSNTINTIRKAIDRNAEVQVEVVNFKKNGQRFVNFLTIIPVRDETGEYRYSMGFQCETE
modifications: nMagHigh1 amino acid sequence
B1: the “Target mRNA cleavage with pMag in combination with dimerization partner” value is “Efficient target mRNA cleavage was seen”.
